This is an account of results in paper PMC7939381, “MMP activation–associated aminopeptidase N reveals a bivalent 14-3-3 binding motif” (The Journal of Biological Chemistry, 2020).

Primed or numbered codes have the meaning given here. Where no end group is shown, it is not given here. [ ]: non-standard residue; d: D form. The star is where a group is joined. FITC = O=C1OC2(c3ccc(O)cc3Oc3cc(O)ccc32)c2ccc(NC(=S)*)cc21; pS = N[C@@H](COP(=O)(O)O)C(=O)O; PEG2″ = not defined here

Common to all, as to assay: fluorescence polarisation; direct binding: dilution series of 14-3-3 protein added to FITC-labeled peptide (30 nM stock, 5 µl in 15 µl); 10 mM HEPES pH 7.4, 150 mM NaCl, 2 mM DTT, 0.01% Tween 20; 60 min at room temperature, read at 25 °C; four-parameter fit
Common to all, as to conditions: both partners purified

For assay [1], the target named is T1, 14-3-3η, full length, N-terminally His6-tagged (human, UniProt Q04917 1-246).
T1 construct: 14-3-3 eta, human, full length; also called His6-14-3-3η; source: E. coli BL21(DE3), purified (HisTrap, SEC); also in E. coli cell lysate (pulldown); not shown: His6, N-terminal, kept
T1 sequence (looked up): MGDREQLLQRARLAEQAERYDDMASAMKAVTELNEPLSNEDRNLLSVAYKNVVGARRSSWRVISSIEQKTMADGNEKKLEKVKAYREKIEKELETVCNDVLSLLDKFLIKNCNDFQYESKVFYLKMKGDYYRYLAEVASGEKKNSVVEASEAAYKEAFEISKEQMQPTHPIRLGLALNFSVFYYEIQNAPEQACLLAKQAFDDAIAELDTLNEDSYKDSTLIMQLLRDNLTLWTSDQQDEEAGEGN

The target of assay [2] is T2, 14-3-3θ, full length, N-terminally His6-tagged (human, UniProt P27348 1-245).
T2 construct: 14-3-3 theta (printed as τ in the introduction, θ in the results), human, full length; also called 14-3-3τ; source: E. coli BL21(DE3), purified (HisTrap, SEC)
T2 sequence (looked up): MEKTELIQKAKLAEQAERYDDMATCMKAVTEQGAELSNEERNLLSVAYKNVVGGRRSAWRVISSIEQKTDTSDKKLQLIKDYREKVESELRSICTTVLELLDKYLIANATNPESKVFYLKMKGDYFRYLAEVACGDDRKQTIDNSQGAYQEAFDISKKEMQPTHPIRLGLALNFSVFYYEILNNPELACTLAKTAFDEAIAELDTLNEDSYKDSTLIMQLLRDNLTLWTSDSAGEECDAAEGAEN

For assay [3], the target named is T3, 14-3-3ε, full length, N-terminally His6-tagged (human, UniProt P62258 1-255).
T3 construct: 14-3-3 epsilon, human, full length; source: E. coli BL21(DE3), purified (HisTrap, SEC)
T3 sequence (looked up): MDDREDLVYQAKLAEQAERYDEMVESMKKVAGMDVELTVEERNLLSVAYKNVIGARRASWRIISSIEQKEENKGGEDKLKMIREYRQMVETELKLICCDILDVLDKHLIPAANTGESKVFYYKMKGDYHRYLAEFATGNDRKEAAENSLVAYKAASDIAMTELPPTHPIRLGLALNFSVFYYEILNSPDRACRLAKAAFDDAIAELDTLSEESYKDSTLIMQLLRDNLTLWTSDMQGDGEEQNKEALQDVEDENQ

For assay [4], the target named is T4, 14-3-3σ, full length, N-terminally His6-tagged (human, UniProt P31947 1-248).
T4 construct: 14-3-3 sigma (stratifin), human, full length; no tag cleavage is described for the full-length proteins; also called stratifin; SFN; source: E. coli BL21(DE3), purified (HisTrap, SEC)
T4 sequence (looked up): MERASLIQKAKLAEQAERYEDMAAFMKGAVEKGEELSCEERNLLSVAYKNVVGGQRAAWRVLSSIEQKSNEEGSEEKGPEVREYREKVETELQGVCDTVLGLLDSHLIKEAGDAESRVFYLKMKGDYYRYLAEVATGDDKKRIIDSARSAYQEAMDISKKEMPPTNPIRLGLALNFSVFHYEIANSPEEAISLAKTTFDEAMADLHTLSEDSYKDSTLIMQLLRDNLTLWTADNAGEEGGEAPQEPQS

Assay [5] concerns the target T5, 14-3-3ζ, full length, N-terminally His6-tagged (human, UniProt P63104 1-245).
T5 construct: 14-3-3 zeta, human, full length; source: E. coli BL21(DE3), purified (HisTrap, SEC)
T5 sequence (looked up): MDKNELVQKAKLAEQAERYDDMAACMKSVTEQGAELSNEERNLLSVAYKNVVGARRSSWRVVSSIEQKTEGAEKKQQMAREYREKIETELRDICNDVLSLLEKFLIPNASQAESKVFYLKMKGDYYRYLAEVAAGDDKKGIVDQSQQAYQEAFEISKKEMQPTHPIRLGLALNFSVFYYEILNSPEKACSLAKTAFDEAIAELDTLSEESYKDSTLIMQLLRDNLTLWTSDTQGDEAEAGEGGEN

In assay [6] the target is T6, 14-3-3γ, full length, N-terminally His6-tagged (human, UniProt P61981 1-247).
T6 construct: 14-3-3 gamma, human, full length; source: E. coli BL21(DE3), purified (HisTrap, SEC)
T6 sequence (looked up): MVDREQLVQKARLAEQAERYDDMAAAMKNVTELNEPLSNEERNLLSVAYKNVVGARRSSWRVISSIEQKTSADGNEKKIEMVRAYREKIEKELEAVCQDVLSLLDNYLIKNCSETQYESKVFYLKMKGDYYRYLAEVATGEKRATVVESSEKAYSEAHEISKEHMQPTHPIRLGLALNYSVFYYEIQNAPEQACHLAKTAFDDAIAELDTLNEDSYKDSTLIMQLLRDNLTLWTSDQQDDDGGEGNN

B1: FITC-labeled peptide 1, APN 38–46 pSer43 (peptide)
peptide: {FITC-PEG2″}-NKNAN[pS]SPV
notes: aminopeptidase N (APN, CD13), human, residues 38-46; also called site 1; source: synthetic peptide (Fmoc SPPS, HPLC purified)
With B1, the values for the dissociation constant (Kd) in assay [1] and in assay [4] were 320 ± 40 nM and 1700 ± 100 nM, respectively. Further, the binding result in assay [2], in assay [3], in assay [5] and in assay [6] was “binds” each time.

What is called Kd is the free concentration of one partner at which half of the binding sites on the other are occupied at equilibrium, for simple one-to-one binding. Low values mean tighter binding, high ones weaker binding.
